Assay results from patent publication US20250002577A1 (ONCORESPONSE, published 2025).

B1: B21H4-13 (antibody, human IgG4 S228P, kappa)
heavy: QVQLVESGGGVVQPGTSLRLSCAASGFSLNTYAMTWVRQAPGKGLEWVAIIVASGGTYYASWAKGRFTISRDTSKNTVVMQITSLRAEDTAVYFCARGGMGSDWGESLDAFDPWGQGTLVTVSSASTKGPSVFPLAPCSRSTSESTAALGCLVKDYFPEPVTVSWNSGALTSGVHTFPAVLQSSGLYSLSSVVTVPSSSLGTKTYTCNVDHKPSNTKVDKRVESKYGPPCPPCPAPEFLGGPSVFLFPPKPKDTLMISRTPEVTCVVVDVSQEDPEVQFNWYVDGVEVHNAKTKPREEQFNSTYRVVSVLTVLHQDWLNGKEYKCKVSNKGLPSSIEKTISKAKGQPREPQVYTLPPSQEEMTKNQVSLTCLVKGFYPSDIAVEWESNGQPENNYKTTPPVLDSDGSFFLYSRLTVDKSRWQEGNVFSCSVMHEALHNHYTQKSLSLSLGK
light: DIVMTQSPSSVSASVGDRVTITCQASGNIYSFLAWYQQKPGKAPKLLIYTASNLETGVPSRFSGSGSGTDFTLTISSLQPEDFATYYCLGGLYSSDVSYAFGGGTKVVIKRTVAAPSVFIFPPSDEQLKSGTASVVCLLNNFYPREAKVQWKVDNALQSGNSQESVTEQDSKDSTYSLSSTLTLSKADYEKHKVYACEVTHQGLSSPVTKSFNRGEC
notes: humanized IgG4/kappa, VH1+VL3; transfection supernatant
B2: B21A4 (antibody, human IgG4 S228P, kappa)
heavy: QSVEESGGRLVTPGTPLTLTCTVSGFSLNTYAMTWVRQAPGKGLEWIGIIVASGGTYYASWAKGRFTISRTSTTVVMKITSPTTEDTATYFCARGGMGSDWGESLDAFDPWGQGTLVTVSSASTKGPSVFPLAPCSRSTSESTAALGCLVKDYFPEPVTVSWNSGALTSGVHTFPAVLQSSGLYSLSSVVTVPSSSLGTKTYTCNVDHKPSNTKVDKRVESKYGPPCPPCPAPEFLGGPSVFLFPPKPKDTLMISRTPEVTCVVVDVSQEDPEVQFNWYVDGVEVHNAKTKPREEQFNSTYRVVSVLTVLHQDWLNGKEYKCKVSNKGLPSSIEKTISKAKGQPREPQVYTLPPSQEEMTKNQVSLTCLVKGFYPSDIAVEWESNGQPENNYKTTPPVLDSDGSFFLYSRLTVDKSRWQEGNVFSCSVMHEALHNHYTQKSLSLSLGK
light: DIVMTQTPASVEAAVGGTVTINCQASGNIYSFLAWYQQKPGQPPKLLIYTASNLETGVPSRFSGSGSGTEYTLTISGVQCDDAATYYCLGGLYSSDVSYAFGGGTEVVVKRTVAAPSVFIFPPSDEQLKSGTASVVCLLNNFYPREAKVQWKVDNALQSGNSQESVTEQDSKDSTYSLSSTLTLSKADYEKHKVYACEVTHQGLSSPVTKSFNRGEC
notes: Rabbit/human chimera, human IgG4/kappa; 3 is used here; also called B21A chimera IgG4; Clone B21A4
B3: B21H4-14 (antibody, human IgG4 S228P, kappa)
heavy: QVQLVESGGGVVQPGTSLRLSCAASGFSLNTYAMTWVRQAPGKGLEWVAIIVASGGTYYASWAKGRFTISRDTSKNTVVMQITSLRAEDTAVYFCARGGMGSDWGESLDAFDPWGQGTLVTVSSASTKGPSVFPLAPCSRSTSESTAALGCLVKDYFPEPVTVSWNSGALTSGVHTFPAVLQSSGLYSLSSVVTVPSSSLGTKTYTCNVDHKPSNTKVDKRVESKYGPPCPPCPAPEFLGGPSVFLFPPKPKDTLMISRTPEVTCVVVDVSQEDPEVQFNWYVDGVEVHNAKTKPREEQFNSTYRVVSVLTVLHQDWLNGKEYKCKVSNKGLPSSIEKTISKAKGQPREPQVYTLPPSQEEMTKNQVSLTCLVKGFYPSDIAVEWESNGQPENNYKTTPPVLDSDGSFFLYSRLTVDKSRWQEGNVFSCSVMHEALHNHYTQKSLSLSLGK
light: DVVMTQSPSTVSASVGDRVTLTCQASGNIYSFLAWYQQKPGQPPKLLIYTASNLETGVPDRFSGSGSGTDYTLTISSLQADDFATYYCLGGLYSSDVSYAFGQGTKVEIKRTVAAPSVFIFPPSDEQLKSGTASVVCLLNNFYPREAKVQWKVDNALQSGNSQESVTEQDSKDSTYSLSSTLTLSKADYEKHKVYACEVTHQGLSSPVTKSFNRGEC
notes: humanized IgG4/kappa, VH1+VL4; transfection supernatant

Key:
[1] = biological target: T1, recombinant human LILRB1-His (human, UniProt Q8NHL6 24-458); test: MSD ELISA, coated antigen, transfection supernatant
T1 construct: Bought protein; also called LILRB1 protein
T1 sequence (Q8NHL6 24-458 limits assumed): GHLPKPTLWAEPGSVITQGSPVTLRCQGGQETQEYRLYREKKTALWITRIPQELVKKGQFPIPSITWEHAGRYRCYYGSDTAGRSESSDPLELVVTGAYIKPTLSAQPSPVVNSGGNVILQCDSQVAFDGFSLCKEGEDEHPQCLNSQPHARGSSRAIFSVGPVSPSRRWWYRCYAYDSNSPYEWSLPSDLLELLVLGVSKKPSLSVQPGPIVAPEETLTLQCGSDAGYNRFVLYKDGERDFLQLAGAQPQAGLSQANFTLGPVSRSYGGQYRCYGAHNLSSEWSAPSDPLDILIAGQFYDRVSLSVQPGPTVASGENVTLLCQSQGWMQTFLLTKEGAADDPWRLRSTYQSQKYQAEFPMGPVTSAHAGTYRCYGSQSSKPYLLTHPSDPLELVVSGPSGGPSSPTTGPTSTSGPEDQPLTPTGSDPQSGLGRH
Description: (§1) To confirm binding to human LILRB1 and human LILRB2, transfection supernatants (obtained in Example 2) were evaluated for binding by ELISA. The conditioned media from these transient transfections were assayed for human IgG concentration by AlphaLISA® immunoassay (PerkinElmer, No. AL310C) (Table 4). A plate-based MSD ELISA was performed in which human LILRB1-His or LILRB2-His was immobilized, and binding of transfection supernatants of humanized mAb variants was detected via an anti-human IgG Sulfo-tag-labeled secondary antibody. The IgG1 version of the parental rabbit/human chimera (designated B21A1) transfection served as the benchmark EC₅₀ positive control.
(§2) Recombinant human and cynomolgus LILRB1 proteins (R&D Systems, No. 8989-T2-050; ACROBiosystems, No. CDJ-C52H3) and recombinant human and cynomolgus LILRB2 proteins (ACROBiosystems, No. LI2-H5220; No. L12-C52H3) were diluted in PBS to 4 μg/mL and added to a multi-array 384-well high-binding plates (MSD, No. L21XA4) at 10 μL/well and incubated at 4° C. overnight. The plates were washed several times with Wash Buffer (0.05% Tween® 20 in PBS), using a microplate washer and then blocked with 70 μL/well of 5% BSA in PBS for 1 hour (h) at room temperature (RT) with shaking at 700 rpm. After blocking, 20 μL/well of anti-LILRB2/LILRB1 antibodies or isotype control were added to the plates, and the plates were sealed and incubated for 2 h at RT with shaking at 700 rpm. After primary antibody binding, plates were washed five times with 70 μL/well of Wash Buffer (0.05% Tween® 20 in PBS) using a microplate washer. Secondary detection antibody (SULFO-TAG™-labeled goat anti-human IgG antibody (MSD, No. R32AJ-1)) was diluted to 4 μg/mL in assay diluent (1% BSA in PBS) and 10 μL/well was added to plates and incubated at RT protected from light for 1 h, with shaking at 700 rpm. Following incubation, plates were washed five times with Wash Buffer, using a microplate washer. After removal of the final wash, 35 μL/well of MSD Gold Read Buffer B (MSD, No. R60AM-4) was added to all wells using a Multidrop combo washer/dispenser, and plates were read using MESO Sector 600MM instrument (MSD) within 5 minutes (min) after addition of Read Buffer. Signals as counts per minute (cpm) were recorded.

[2] = biological target: T2, recombinant human LILRB2-His (human, UniProt Q8N423 22-461, limits assumed); test: as above
T2 construct: Bought protein; also called LILRB2 protein
T2 sequence (Q8N423 22-461 limits assumed): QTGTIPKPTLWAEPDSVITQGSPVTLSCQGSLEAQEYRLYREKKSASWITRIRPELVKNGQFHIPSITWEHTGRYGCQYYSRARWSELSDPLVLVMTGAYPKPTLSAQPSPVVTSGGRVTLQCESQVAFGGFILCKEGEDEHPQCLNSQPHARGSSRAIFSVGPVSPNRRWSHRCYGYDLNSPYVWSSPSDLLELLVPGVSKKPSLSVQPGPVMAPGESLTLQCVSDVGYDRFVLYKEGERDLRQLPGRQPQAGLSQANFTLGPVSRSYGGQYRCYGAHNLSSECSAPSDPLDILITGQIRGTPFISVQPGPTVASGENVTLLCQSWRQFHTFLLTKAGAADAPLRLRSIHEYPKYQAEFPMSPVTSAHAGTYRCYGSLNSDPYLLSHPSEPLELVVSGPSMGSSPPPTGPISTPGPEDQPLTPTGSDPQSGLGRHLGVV
Description: as §1, §2

Row | Binder | EC50 [1] [ng/mL] | EC50 [2] [ng/mL]
1 | B1 | 1.5 | 1.01
2 | B2 | 3.73 | 2.63
3 | B3 | 1.3 | 1.46
